Measured values as given in patent CN116178551A (BEIJING DONGFANG BIOTECH CO LTD, dated 2023).

How the values were obtained:
[1] = target: T1, huFc-NKG2C/CD94 (UniProt P26717 94-231; Q13241 32-179, limits assumed); assay: ELISA, serial dilution of MA-1 on huFc-NKG2C/CD94, anti-mouse Ig-HRP
T1 construct: The construct is named only, and its architecture is not described; not shown: human Fc (huFc)

[2] = target: T2, huFc-NKG2E/CD94 (UniProt Q07444 94-240; Q13241 32-179, limits assumed); assay: ELISA, serial dilution of MA-1 on huFc-NKG2E/CD94, anti-mouse Ig-HRP
T2 construct: The construct is named only, and its architecture is not described; not shown: human Fc (huFc)

[3] = target: T3, huFc-NKG2A/CD94 (UniProt P26715 94-233; Q13241 32-179, limits assumed); assay: phage supernatant ELISA, huFc-NKG2A/CD94 against huFc-NKG2C/CD94 and huFc-NKG2E/CD94 (selection criterion met by MA-1)
T3 construct: The construct is named only, and its architecture is not described; The Fc is placed N-terminal following the printed name; not shown: human Fc (huFc)
T3 sequence (P26715 94-233 limits assumed, chain 1 of 2): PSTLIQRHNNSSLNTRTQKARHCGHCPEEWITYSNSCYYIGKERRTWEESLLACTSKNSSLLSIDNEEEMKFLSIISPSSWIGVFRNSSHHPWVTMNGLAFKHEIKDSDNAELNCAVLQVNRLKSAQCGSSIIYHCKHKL
T3 sequence (Q13241 32-179 limits assumed, chain 2 of 2): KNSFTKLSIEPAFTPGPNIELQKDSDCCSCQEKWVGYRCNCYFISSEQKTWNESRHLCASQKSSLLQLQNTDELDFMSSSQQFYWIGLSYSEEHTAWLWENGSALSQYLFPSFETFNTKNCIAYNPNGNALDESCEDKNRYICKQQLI

T2 sequence (Q07444 94-240 limits assumed, chain 1 of 2): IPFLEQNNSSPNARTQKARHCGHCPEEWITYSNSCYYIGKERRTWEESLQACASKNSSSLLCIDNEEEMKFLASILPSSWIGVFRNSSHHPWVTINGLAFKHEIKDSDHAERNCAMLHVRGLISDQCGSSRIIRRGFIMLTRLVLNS
T2 sequence (Q13241 32-179 limits assumed, chain 2 of 2): as the sequence (Q13241 32-179 limits assumed, chain 2 of 2) above
T1 sequence (P26717 94-231 limits assumed, chain 1 of 2): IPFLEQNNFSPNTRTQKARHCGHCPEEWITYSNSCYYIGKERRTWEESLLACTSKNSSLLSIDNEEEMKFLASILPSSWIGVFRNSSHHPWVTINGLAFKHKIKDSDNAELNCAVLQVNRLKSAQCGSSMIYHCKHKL
T1 sequence (Q13241 32-179 limits assumed, chain 2 of 2): as the sequence (Q13241 32-179 limits assumed, chain 2 of 2) above

B1: MA-1鼠源抗体 (murine full antibody MA-1, mouse IgG2a / mouse Ck) (antibody, V domains shown)
VH: EVKLEESGGGLVKPGGSLKLSCAASGFAFSDYDMSWVRQTPEKRLEWVATISSGGSYTYYPDSVKGRFTISRDNARNTLYLQMSSLRSEDTALYYCTSPRQVGLRKAFDYWGQGTTLTVSS
VL: DIVVTQSPALMSASPGEKVTMTCSASSSVSYMYWYQQKPRSSPKSWIYLTSNLASGVPARFSGSGSGTSYSLTISSMEAEDAATYYCQQWSSNPFTFGSGTKLEIKR
notes: also called 抗NKG2A单克隆抗体MA-1; 鼠源全抗分子
B1: no binding [1]; no binding [2].

B2: 噬菌体单克隆抗体MA-1 (phage-displayed single-chain antibody MA-1) (scFv)
chain: EVKLEESGGGLVKPGGSLKLSCAASGFAFSDYDMSWVRQTPEKRLEWVATISSGGSYTYYPDSVKGRFTISRDNARNTLYLQMSSLRSEDTALYYCTSPRQVGLRKAFDYWGQGTTLTVSSDIVVTQSPALMSASPGEKVTMTCSASSSVSYMYWYQQKPRSSPKSWIYLTSNLASGVPARFSGSGSGTSYSLTISSMEAEDAATYYCQQWSSNPFTFGSGTKLEIKRAD
In the case of B2, the “OD450nm读值 with NKG2A relative to NKG2C/E” value [3] is reported as over 3 fold.
